# From patent US7329737 (DYAX, dated 2008)
# Changes are numbered by the printed parent chain.
# B1: M0126-B12 (Fab, V domains shown)
# VH: EVQLLESGGGLVQPGGSLRLSCAASGFTFSHYVMGWVRQAPGKGLEWVSSIYPSGGKTTYADSVKGRFTISRDNSKNTLYLQMNSLRAEDTAVYYCASPSTGSWSAFDIWGQGTMVTVSS
# VL: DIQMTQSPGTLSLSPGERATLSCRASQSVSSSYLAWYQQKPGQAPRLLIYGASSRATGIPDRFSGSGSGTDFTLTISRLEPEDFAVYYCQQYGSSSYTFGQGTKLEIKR
# B2: M0128-F11 (Fab, V domains shown)
# VH: EVQLLESGGGLVQPGGSLRLSCAASGFTFSFYVMGWVRQAPGKGLEWVSWIGPSGGRTWYADSVKGRFTISRDNSKNTLYLQMNSLRAEDTAVYYCARDRGWYGIDVWGQGTTVTVSS
# VL: DIQMTQSPSSLSASVGDRVTITCRASQYISTYLAWYQQKPGKAPKLLIYKASDLESGVPSRFSGSGSGTEFTLTINSLQPDDFATYYCQQYNTYWTFGHGTKVEIKR
# B3: M0127-H05 (Fab, V domains shown)
# VH: EVQLLESGGGLVQPGGSLRLSCAASGFTFSHYLMGWVRQAPGKGLEWVSSIWPSGGHTSYADSVKGRFTISRDNSKNTLYLQMNSLRAEDTAVYYCARHYGMDVWGQGTTVTVSS
# VL: DIQMTQSPSSLSASVGDRVTITCRASQSISSYLNWYQQKPGKVPKLLIYAASSLQSGVPSRFSGSGSGTDFTLTISSLQPDDFATYYCQQTFSTWTFGQGTKVEIRR
# B4: M0116-C09 (Fab, V domains shown)
# VH: EVQLLESGGGLVQPGGSLRLSCAASGFTFSNYKMHWVRQAPGKGLEWVSSIYPSGGWTVYADSVKGRFTISRDNSKNTLYLQMNSLRAEDTAVYYCATGYSSTWGAFDIWGQGTMVTVSS
# VL: AQSALTQPPSVSVSPGQTASITCFGDKLGDKYGSWYQQKPGQSPVLVLYQYWKRPSGIPERFSGSNSGNTATLTINVTQTMDEADYYCQAWDSNTVVFGGGTKLTVLG
# B5: M0107-D05 (Fab, V domains shown)
# VH: EVQLLESGGGLVQPGGSLRLSCAASGFTFSNYHMQWVRQAPGKGLEWVSSIYPSGGFTRYADSVKGRFTISRDNSKNTLYLQMNSLRAEDTAVYYCARDGGQGGWGQGTLVTVSS
# VL: DIQMTQSPSTLSASVGDRVTITCRASQSISSWLAWYQQKPGKVPKLLIHAASTLQSGVPSRFSGSGSGTDFTLTISSLQPEDVATYYCQKYNSAPLTFGGGTKVEIKR
# B6: M0124-G12 (Fab, V domains shown)
# VH: EVQLLESGGGLVQPGGSLRLSCAASGFTFSHYWMRWVRQAPGKGLEWVSSIGSSGGMTKYADSVKGRFTISRDNSKNTLYLQMNSLRAEDTAVYYCARALRWRAFDIWGQGTMVTVSS
# VL: B5 VL with T10S, L11V, S28G, V43A, H49Y, T53S, V83F, K90Q, Y91A, A94F
# B7: M0131-D12 (Fab, V domains shown)
# VH: EVQLLESGGGLVQPGGSLRLSCAASGFTFSWYNMYWVRQAPGKGLEWVSYIVPSGGATHYADSVKGRFTISRDNSKNTLYLQMNSLRAEDTAVYYCARALRGYSYGPRGYYYYGMDVWGQGTTVTVSS
# VL: AQSALTQPPSVSVAPGQTASISCSGNILDNSYASWFQQKPGQSPVMVIHRDNKRPSGIPERFSGSTSGNTATLTISGTQAVDEADYYCQAWDRTTGVFGTGTRLTVLR
# B8: M0099-D05 (Fab, V domains shown)
# VH: EVQLLESGGGLVQPGGSLRLSCAASGFTFSNYIMSWVRQAPGKGLEWVSSIWPSGGHTRYADSVKGRFTISRDNSKNTLYLQMNSLRAEDTAVYYCARAGSYYAGDYWGQGTLVTVSS
# VL: DIQMTQSPGTLSLSPGERATLSCRASQTVSSNYLAWYQQKPGLAPRLLIYGVSNRAAGIPDRFSGRGSGTDFTLIINRLEPEDFAVYYCQHYGSSAFTFGRGTKLEIER
# B9: M0122-G06 (Fab, V domains shown)
# VH: EVQLLESGGGLVQPGGSLRLSCAASGFTFSWYAMHWVRQAPGKGLEWVSVISPSGGATRYADSVKGRFTISRDNSKNTLYLQMNSLRAEDTAVYYCVRASTVTTLFQHWGQGTLVTVSS
# VL: AQSALTQPASVSGSPGQSITISCTGTSSDVGGYNYVSWYQQHPGKAPKLMIYDVSKRPSGVSNRFSGSKSGNTASLTISGLQAEDEADYYCSSYTSSITLVVFGGGTKLTVLS
# B10: M0126-C10 (Fab, V domains shown)
# VH: EVQLLESGGGLVQPGGSLRLSCAASGFTFSHYKMHWVRQAPGKGLEWVSSIWPSGGGTFYADSVKGRFTISRDNSKNTLYLQMNSLRAEDTAMYYCARTSGGFGAFDIWGQGTMVTVSS
# VL: DIQMTQSPSSLSASVGDRVTITCRAGQTINNYLNWYQQKPGKAPNLLIYAASNLQSGVPSRFSGSKSGTDFTLTISSLQPEDFATYHCQQTYRTPFTFGGGTRVEIKG
# B11: M0127-D05 (Fab, V domains shown)
# VH: EVQLLESGGGLVQPGGSLRLSCAASGFTFSHYYMMWVRQAPGKGLEWVSSIGPSGGMTDYADSVKGRFTISRDNSKNTLYLQMNSLRAEDTAVYYCATGGTASLDYWGQGTLVTVSS
# VL: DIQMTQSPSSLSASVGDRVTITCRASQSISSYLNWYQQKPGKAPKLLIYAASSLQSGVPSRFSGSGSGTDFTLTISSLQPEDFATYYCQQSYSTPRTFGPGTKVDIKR
# B12: M0131-A03 (Fab, V domains shown)
# VH: EVQLLESGGGLVQPGGSLRLSCAASGFTFSWYTMGWVRQAPGKGLEWVSVIYPSGGMTKYADSVKGRFTISRDNSKNTLYLQMNSLRAEDTAVYYCARTSGGTPWGFWGQGTLVTVSS
# VL: AQYELTQPASVSGSPGQSITISCTGTNTDVGGYNYVSWYQQYPGKAPKLMIYEVNHRPSGVSNRFSGSKSGNTASLTISGLQAEDEADYYCSSYTYRNTYVFGTGTKVTVLG
# B13: M0094-F03 (Fab, V domains shown)
# VH: EVQLLESGGGLVQPGGSLRLSCAASGFTFSWYQMSWVRQAPGKGLEWVSSIYPSGGATKYADSVKGRFTISRDNSKNTLYLQMNSLRAEDTAMYYCARMGLHHSFDYWGQGTLVTVSS
# VL: DIQMTQSPGTLSLSLGETATLSCRASQTVGGSYLAWYRQKPGQAPSLLIYAASNRAPGIPDRFSGSGSGTDFTLTISSLQSEDFAVYYCQQYGSSMYTFGQGTILEIKR
# B14: M0097-E07 (Fab, V domains shown)
# VH: EVQLLESGGGLVQPGGSLRLSCAASGFTFSWYQMMWVRKAPGKGLEWVSYIRSSGGKTDYADSVKGRFTISRDNSKNTLYLQMNSLRAEDTAVYYCARVGVWYGMDVWGQGTTVTVSS
# VL: DIQMTQSPSSLSASVGDRVTITCRASQSISSYLSWFQQRPGKAPKLLIYSASNLQSGVPLRFSGSGSGTDFTLTISSLQPEDFATYYCQQIYRTPLTFGGGTKVEIKR
# B15: M0112-C12 (Fab, V domains shown)
# VH: B14 VH with W31R, Q33M, M35Y, K39Q, Y50S, R52Y, S53P, D59L
# VL: DIQMTQSPGTLSLSPGERATLSCRASQSVSSSYLAWYQQKPGQAPRLLIYGASSRATGIPDRFSGSGSGTEFTLTISSLQSEDSAVYYCQQYNNWPPLTFGGGTKVEIKR
# B16: M0117-A12 (Fab, V domains shown)
# VH: B14 VH with W31N, Q33K, M35S, K39Q, Y50G, R52Y, S53P, K57L, D59Q, R98K
# VL: DIQMTQSPGTLSLSPGDRATLSCRASQSVGSDYLAWYQQKPGQAPRLLIYGASSRATGIPDRFSGSGSGTDFTLTISRLEPEDFAVYYCQQYGSSLYTFGQGTKLEIKR
# B17: M0128-A06 (Fab, V domains shown)
# VH: B14 VH with W31H, Q33K, M35N, K39Q, R52G, D59G, V93L, T113L
# VL: AQSALTQPPSLSVSAGQTATITCSPSGGGLRNKYVSWYQQRPGQSPFLVIYKDAERPSGIPERFSGSNFGNTATLTIGGTQAMDEADFYCLAWDSTTRVFGGGTKLTVLS
# B18: M0117-C04 (Fab, V domains shown)
# VH: EVQLLESGGGLVQPGGSLRLSCAASGFTFSHYLMFWVRQAPGKGLEWVSSIWPSGGNTKYADSVKGRFTISRDNSKNTLYLQMNSLRAEDTAVYYCARPAYYYAMDVWGQGTTVTVSS
# VL: DIQMTQSPLSLSASVGDRVTITCRASQTFNNYLNWYQQKPGKAPKLLIYAASTLQSGVPSRFSGSGSGTDFTLTISSLQPEDFATYYCQQANSFPFTFGPGTKVDIKR
# B19: M0098-C10 (Fab, V domains shown)
# VH: EVQLLESGGGLVQPGGSLRLSCAASGFTFSFYSMMWVRQAPGKGLEWVSGISSSGGTTKYADSVKGRFTISRDNSKNTLYLQMNSLRAEDTAVYYCARGGTNYDYVWGSYRSHYYYYGMDVWGQGTTVTVSS
# VL: DIQMTQSPSSLSASVGDRVTITCRASHNIYTSLNWLQQKPGKAPKLLIYGASTLENGVPSRFSGSASGTDFTLTISSLQPEDSATYYCQQSYTSVTFGQGTKLEIRR
# B20: M0131-C08 (Fab, V domains shown)
# VH: EVQLLESGGGLVQPGGSLRLSCAASGFTFSWYSMTWVRQAPGKGLEWVSSISPSGGATKYADSVKGRFTISRDNSKNTLYLQMNSLRAEDTAVYYCARGGAASLPFDYWGQGTLVTVSS
# VL: DIQMTQSPSSVSASVGDRVTITCRASQDVLVSFAWYQQRPGTAPKLLIYAASHLHPGVPSRFSASGSGTDFTLTINGLQPEDFATYYCQQARSFPHTFGQGTRLEKKR
# B21: M0095-H10 (Fab, V domains shown)
# VH: EVQLLESGGGLVQPGGSLRLSCAASGFTFSNYKMQWVRQAPGKGLEWVSSIYSSGGKTVYADSVKGRFTISRDNSKNTLYLQMNSLRAEDTAVYYCARTPGYNYFDYWGQGTLVTVSS
# VL: DIQMTQSPSTLSASVGDRVTITCRASQSISSWLAWYQQKPGKAPKLLIYTASSLESGVPSRFSAGGSGTEFTLTISSLQPDDFGTYYCQQYNSYSLTFGGGTKVEIKR
# Molecular target: T1, hK1 (human tissue kallikrein 1), recombinant (human, UniProt P06870 25-262)
# T1 construct: Expressed in P. pastoris from KLK1 cDNA and purified; enzymatically active; also called KLK1; Recombinant (Pichia) Kallikrein
# Assay: SPR
Binder,Kd,koff,kon
B1,0.015 µM,0.00579 s⁻¹,385000 M⁻¹ s⁻¹
B2,0.0183 µM,0.0143 s⁻¹,780000 M⁻¹ s⁻¹
B3,0.0153 µM,0.00439 s⁻¹,287000 M⁻¹ s⁻¹
B4,0.0182 µM,0.00947 s⁻¹,520000 M⁻¹ s⁻¹
B5,0.0153 µM,0.003 s⁻¹,195000 M⁻¹ s⁻¹
B6,0.0172 µM,0.0064 s⁻¹,372000 M⁻¹ s⁻¹
B7,0.0184 µM,0.00193 s⁻¹,105000 M⁻¹ s⁻¹
B8,0.0175 µM,0.00578 s⁻¹,331000 M⁻¹ s⁻¹
B9,0.0152 µM,0.107 s⁻¹,7.08e+06 M⁻¹ s⁻¹
B10,0.0144 µM,0.00648 s⁻¹,451000 M⁻¹ s⁻¹
B11,0.0144 µM,0.000921 s⁻¹,63900 M⁻¹ s⁻¹
B12,0.0174 µM,0.046 s⁻¹,2.65e+06 M⁻¹ s⁻¹
B13,0.0167 µM,0.00644 s⁻¹,
B14,0.0139 µM,0.00815 s⁻¹,585000 M⁻¹ s⁻¹
B15,0.016 µM,0.00465 s⁻¹,290000 M⁻¹ s⁻¹
B16,0.0142 µM,0.00345 s⁻¹,243000 M⁻¹ s⁻¹
B17,0.0184 µM,0.00612 s⁻¹,332000 M⁻¹ s⁻¹
B18,0.0166 µM,0.00334 s⁻¹,201000 M⁻¹ s⁻¹
B19,0.0161 µM,0.00193 s⁻¹,120000 M⁻¹ s⁻¹
B20,0.0177 µM,0.00466 s⁻¹,264000 M⁻¹ s⁻¹
B21,0.0165 µM,0.00918 s⁻¹,556000 M⁻¹ s⁻¹
